Test results as given in patent US20250042994A1 (HAINAN SIMCERE ZAIMING PHARMACEUTICAL, published 2025).

Tests used:
[1] = biological target: T1, cynomolgus monkey CD19 on peripheral blood B cells (cynomolgus monkey (Macaca fascicularis), UniProt A0A2K5W8L9 20-557); experiment: FACS, cynomolgus PBMC, CD20+ B cells
T1 construct: whole, on cells; also called cynomolgus monkey B cells
T1 sequence: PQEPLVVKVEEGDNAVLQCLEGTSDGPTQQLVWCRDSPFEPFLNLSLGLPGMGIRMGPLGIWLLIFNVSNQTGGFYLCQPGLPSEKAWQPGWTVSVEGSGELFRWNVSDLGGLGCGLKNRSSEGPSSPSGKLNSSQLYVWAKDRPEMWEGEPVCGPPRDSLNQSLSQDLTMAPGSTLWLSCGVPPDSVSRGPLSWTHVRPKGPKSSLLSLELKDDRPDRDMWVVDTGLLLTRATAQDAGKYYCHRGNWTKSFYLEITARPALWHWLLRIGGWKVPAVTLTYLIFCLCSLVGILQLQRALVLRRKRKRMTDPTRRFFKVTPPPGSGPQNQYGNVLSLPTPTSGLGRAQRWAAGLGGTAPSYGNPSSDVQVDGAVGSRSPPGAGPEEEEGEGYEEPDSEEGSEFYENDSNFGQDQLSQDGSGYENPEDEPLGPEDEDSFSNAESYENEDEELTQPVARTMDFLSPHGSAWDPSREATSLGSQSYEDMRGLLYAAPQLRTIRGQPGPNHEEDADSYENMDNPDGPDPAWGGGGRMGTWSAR
Protocol: The monkey peripheral blood mononuclear cells were extracted from fresh cynomolgus monkey peripheral blood (purchased from Shanghai Medicilon Inc.) according to the instructions of Ficoll-Paque Plus (purchased from GE Healthcae, catalog number: 171440-02). After the cell suspension was centrifuged, the cells were resuspended in PBS containing 1% BSA, and then the cells were counted. […] The mixture was incubated for 1 h at room temperature. After washing the cells three times, APC-labeled secondary antibody anti-human IgG Fc (catalog number: 409306, purchased from Biolegend) was added. After incubation at room temperature in the dark for 30 minutes, the cells were washed 5 times, gently resuspended with PBS containing 1% BSA, and detected and analyzed by FACS (FACS Canto™, purchased from BD Company), in which CD20 was used as a marker of B cells to gate the CD20-positive B cell population, the proportion of the chimeric antibody-labeled positive cells was analyzed, and the proportion of the chimeric antibody positive cell population to B cell population was calculated after treatments with the chimeric antibodies at the concentrations of 100 nM, 10 nM and 1 nM, respectively.

human CD19 on Raji cells = biological target: T2, human CD19 on Raji cells (human, UniProt P15391 20-556); experiment: FACS on Raji cells
T2 construct: whole, on cells
T2 sequence (looked up): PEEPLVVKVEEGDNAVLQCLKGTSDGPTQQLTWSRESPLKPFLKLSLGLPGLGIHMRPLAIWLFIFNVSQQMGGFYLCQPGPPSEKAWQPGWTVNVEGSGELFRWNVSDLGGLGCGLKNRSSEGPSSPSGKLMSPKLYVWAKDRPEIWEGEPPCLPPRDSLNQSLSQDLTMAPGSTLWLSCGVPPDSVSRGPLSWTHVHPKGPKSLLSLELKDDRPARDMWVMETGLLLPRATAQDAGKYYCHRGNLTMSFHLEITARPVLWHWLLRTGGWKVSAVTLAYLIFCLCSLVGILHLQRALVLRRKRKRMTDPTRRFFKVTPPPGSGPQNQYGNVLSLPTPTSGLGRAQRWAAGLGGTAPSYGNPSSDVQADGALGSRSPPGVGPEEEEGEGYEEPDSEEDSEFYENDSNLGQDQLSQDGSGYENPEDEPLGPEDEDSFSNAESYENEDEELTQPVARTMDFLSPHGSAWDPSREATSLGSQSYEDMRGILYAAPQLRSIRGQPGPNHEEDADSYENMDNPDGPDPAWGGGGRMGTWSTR

[2] = biological target: T3, human CD19 on CHO-K1-human CD19 cells (human, UniProt P15391 20-556); experiment: FACS on CHO-K1-human CD19 cells
T3 construct: whole, on cells; also called CHO-K1-human CD19-2C8
T3 sequence (looked up): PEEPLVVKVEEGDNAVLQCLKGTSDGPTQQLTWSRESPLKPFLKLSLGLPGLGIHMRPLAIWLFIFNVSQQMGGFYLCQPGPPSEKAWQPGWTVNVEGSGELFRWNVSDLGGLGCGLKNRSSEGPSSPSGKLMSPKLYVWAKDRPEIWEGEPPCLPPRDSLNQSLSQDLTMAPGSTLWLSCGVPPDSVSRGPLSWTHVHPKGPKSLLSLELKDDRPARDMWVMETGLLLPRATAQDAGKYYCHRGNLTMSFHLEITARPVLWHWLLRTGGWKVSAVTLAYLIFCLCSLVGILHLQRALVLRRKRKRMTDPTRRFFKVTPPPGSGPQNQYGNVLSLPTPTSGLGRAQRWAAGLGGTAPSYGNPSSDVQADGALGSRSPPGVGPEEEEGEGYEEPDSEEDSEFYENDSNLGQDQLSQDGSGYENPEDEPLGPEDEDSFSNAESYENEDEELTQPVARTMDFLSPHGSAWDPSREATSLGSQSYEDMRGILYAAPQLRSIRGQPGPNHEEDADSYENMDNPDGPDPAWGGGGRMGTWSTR

[3] = biological target: T4, monkey CD19 on HEK293T-monkey CD19 cells (monkey); experiment: FACS on HEK293T-monkey CD19 cells
T4 construct: whole, on cells
In short: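 Antibody binding was read as MFI by flow cytometry and EC50 was taken from curve fitting. Before that, cells at 2×10⁶ cells/ml in PBS with 2% (w/w) BSA were exposed to samples for 2 h on ice and washed. Parental HEK293T cells were tested the same way.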

| Binder | Proportion of chimeric antibody positive cells to B cells (%) at 1 nM [1] | Proportion of chimeric antibody positive cells to B cells (%) at 10 nM [1] | Proportion of chimeric antibody positive cells to B cells (%) at 100 nM [1] | EC50 (human CD19 on Raji cells) | Maximum mean fluorescence intensity (human CD19 on Raji cells) | EC50 [2] | Maximum mean fluorescence intensity [2] | EC50 [3] | Maximum mean fluorescence intensity [3] |
| --- | --- | --- | --- | --- | --- | --- | --- | --- | --- |
| F3.13.2 (antibody, human IgG1, V domains shown, human-murine chimeric antibody, human IgG1) VH: DVQLQESGPGLMKPSQSLSLTCSVTGYSITSGYYWNWIRQFPGNKLEWMGYISYDGSNNYNPSLKNRFSITRDTSKNQFFLKLNSVTTEDTATYYCARRKLTGGPYFDYWGQGTTLTVSS VL: DIVLTQSPASLAVTLGQRATISCRASESVSFHGFHIMHWYQQKPGQPPKLLIYAASHLVSGVPDRFSGSGSETDFTLNIHPVEEEDAAAYFCQQSVEDPWTFGGGTKLEIK | 1% | 3% | 8% | 5.24 nM | 27100 | 2.46 nM | 43900 | 2.64 nM | 66400 |
| F3.113.16 (antibody, human IgG1, V domains shown, human-murine chimeric antibody, human IgG1) VH: QVQLQQPGAELVKPGASVKLSCKASGYTFTNYWMQWVKQRPGQGLEWIGEIDPSDSYINYNQKFKGKATLTADTSSSTAYMQLSSLTYEDSAVYYCARPVTVPWYFDVWGTGTTVTVSS VL: EIVLTQSPTTMAASPGEKITITCSATSSISSNYLHWYQQKPGFSPKLLIYRTSNLASGVPARFSGSGSGTSYSLTIGTMEAEDVATYYCQQGSAIPRIFTFGSGTKLEIK | 1% | 1% | 6% | 0.96 nM | 28800 | 0.39 nM | 34100 | – | 176 |
| F3.40.14 (antibody, human IgG1, V domains shown, human-murine chimeric antibody, human IgG1) VH: QAQLQQSGPELVKPGASVKISCKASGYAFSGSWMNWVQQRPGKGLEWIGRIYPGDGDTYYSGKFKDKAILTADTSSSTAYMQLSSLTSEDSAVYFCAQLRSRYVMDYWGQGASVTVSS VL: DIVLTQSPASLAVSLGQRATISCRASESVSIHGTHLMHWYQQKPGQPPRLLIYAASNLESGVPARFSGSGSETDFTLNIHPVEEEDAATYFCQQGIDDPYTFGGGTKLEIK | 1% | 1% | 5% | 2.59 nM | 27000 | 6 nM | 49100 | – | 281 |
| F3.64.4 (antibody, human IgG1, V domains shown, human-murine chimeric antibody, human IgG1) VH: EVQLQQSGPELVKPGASVKISCKASGYTFTDYHINWVKQSHGKSPEWIGDINPNNGGTTYNQKFKDKATLTVDKSSSTAFMELRSLTSEDSAVYYCARFITTVVAWYFDVWGTGTTVTVSS VL: DIQMTQSPASLSVSVGETVTITCRASENIYSNLAWYQQKQGKSPQLLVYAATNLADGVPSRFSGSGSGTQYSLKINSLQSEDFGNYYCQRFWDTPRTFGGGTKLEIK | 1% | 2% | 9% | 0.43 nM | 35800 | 0.61 nM | 63700 | 3.99 nM | 98400 |
| F3.83.9 (antibody, human IgG1, V domains shown, human-murine chimeric antibody, human IgG1) VH: DVQLQESGPGLVKPSQSLSLTCSVTGYSITSGYYWNWIRQFPGNKLEWMGYISYDGGNNYNPSLKNRISITRDTSKNQFFLKLNSVTTEDTATYFCAREDYSNWYFDVWGTGTTVTVSS VL: DIVLTQSPASLAVSLGQRATISCRASQSVSKSSYSYMHWYQQKPGQSPKLLIKYASILKSGVPARFSGSGSGTDFTLNIHPVEEEDTATYYCQHSWEIPWTFGGGTKLEIK | 58% | 97% | 99% | 1.75 nM | 29700 | 1.34 nM | 52200 | 1.12 nM | 198000 |
| F3.74.4 (antibody, human IgG1, V domains shown, human-murine chimeric antibody, human IgG1) VH: QVQLQQSGAELVRPGASVTLSCKASGYTFTDYEMHWVKQTPVHGLEWIGGIAPETGLTTYNQKFEDKAILTADKSSRTAYMELRSLTSEDSAVYFCNPNNYGLWGTGTTVTVSS VL: not shown | 1% | 1% | 1% | 3.41 nM | 30100 | 4.55 nM | 3850 | – | 121 |
| F3.81.2 (antibody, human IgG1, V domains shown, human-murine chimeric antibody, human IgG1) VH: QVQLQQPGAELVMPGASVKLSCKASAYTFTNYWMHWVKQRPGHGLEWIGEIDPSDSYTDYNQNFKAKATLTVDKSSSTAYMQLSSLTSEDSAVYYCARLMGRYFDVWGTGTTVTVSS VL: DIVMTQSHKFMSTSVGDRVSITCKASQDVSAAVAWYQQKPGQSPKLLINSASYRYTGVPDRFTGSGSGTDFTFTISSVQAEDLAVYYCQQHYSTPLTFGAGTKLELR | 7% | 16% | 38% | 0.68 nM | 31300 | 1.27 nM | 59600 | 3.44 nM | 153000 |
| F3.109.1 (antibody, human IgG1, V domains shown, human-murine chimeric antibody, human IgG1) VH: EVQLQQSGAELVRPGSSVKMSCKTSGYTFTSYGINWVKQRPGQGLEWIGYIYIGNDYTEFNEKFKGKATLTSDTSSSTAYMQLSSLTSEDSAIYFCARFYSNSDPMDYWGHGTSVTVSS VL: not shown | 1% | 1% | 1% | 0.44 nM | 29900 | 0.57 nM | 3980 | – | 148 |
